Assay results from US20250320312A1 (OXITOPE PHARMA B V, published 2025).

Target: PC-BSA
Assay: ELISA (DELFIA TRF), PC-BSA coated, titrated IgG1

PC-BSA, sequence (P02769 25-607 limits assumed, form in doubt): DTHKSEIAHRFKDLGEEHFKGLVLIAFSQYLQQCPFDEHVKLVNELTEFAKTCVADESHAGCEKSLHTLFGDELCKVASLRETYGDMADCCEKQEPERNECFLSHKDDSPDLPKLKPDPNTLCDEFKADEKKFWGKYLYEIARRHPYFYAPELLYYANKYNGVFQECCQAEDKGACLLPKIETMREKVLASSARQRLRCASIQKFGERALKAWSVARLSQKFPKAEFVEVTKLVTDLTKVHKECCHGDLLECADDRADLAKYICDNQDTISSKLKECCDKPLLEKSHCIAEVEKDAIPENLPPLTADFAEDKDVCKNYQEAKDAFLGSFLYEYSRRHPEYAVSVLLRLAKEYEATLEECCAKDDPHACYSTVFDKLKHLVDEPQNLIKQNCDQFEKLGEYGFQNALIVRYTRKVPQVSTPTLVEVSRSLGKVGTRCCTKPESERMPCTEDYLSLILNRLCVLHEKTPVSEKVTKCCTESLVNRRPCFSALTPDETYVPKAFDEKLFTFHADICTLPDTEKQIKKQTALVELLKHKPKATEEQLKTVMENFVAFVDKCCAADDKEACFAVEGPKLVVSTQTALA

Binder	EC50 [nM]
PcOxP_DB03_B09 (human IgG1) (antibody, V domains shown) VH: EVQLLESGGGLVQPGGSLRLSCAASGFTFSSYYMEWVRQAPGKGLEWVAASRNKANDYTTEYADSVKGRFTISRDNSKNTLYLQMNSLRAEDTAVYYCARDYYGSSYWYFDVWGQGTLVTVSS VL: DIVMTQSPDSLAVSLGERATINCTASESLYSSKHKVHYLAWYQQKPGQPPKLLIYGAANRYIGVPDRFSGSGSGTDFTLTISSLQAEDVAVYYCAQFYSYPLTFGGGTKVEIK	0.426
PcOxP_DB01_H02 (human IgG1) (antibody, V domains shown) VH: EVQLLESGGGLVQPGGSLRLSCAASGFTFSSYYMEWVRQAPGKGLEWVAASRNKANDYTTEYADSVKGRFTISRDNSKNTLYLQMNSLRAEDTAVYYCARDYYGSSYWYFDVWGQGTLVTVSS VL: DIVMTQSPDSLAVSLGERATINCTASSSLYSSKHKVHYLAWYQQKPGQPPKLLIYGASNRYIGVPDRFSGSGSGTDFTLTISSLQAEDVAVYYCAQFYSYPLTFGGGTKVEIK	0.43
PcOxP_DB01_F01 (human IgG1) (antibody, V domains shown) VH: EVQLLESGGGLVQPGGSLRLSCAASGFPFSDFYMEWVRQAPGKGLEWVAASRNKANDYTTEYADSVKGRFTISRDNSKNTLYLQMNSLRAEDTAVYYCARDYYGSPYWYFDVWGQGTLVTVSS VL: DIVMTQSPDSLAVSLGERATINCTASESVYSSKNKKHYLAWYQQKPGQPPKLLIYGASNRYIGVPDRFSGSGSGTDFTLTISSLQAEDVAVYYCAQFYTYPLTFGGGTKVEIK	0.672
PcOxP_DB03_G12 (human IgG1) (antibody, V domains shown) VH: EVQLLESGGGLVQPGGSLRLSCAASGFTFSDYYMEWVRQAPGKGLEWVAASRNKYNDYTTEYADSVKGRFTISRDNSKNTLYLQMNSLRAEDTAVYYCARDYYGSSYWYFDVWGQGTLVTVSS VL: DIVMTQSPDSLAVSLGERATINCKSSESVYSSKHKKHYLAWYQQKPGQPPKLLIYGASNRYIGVPDRFSGSGSGTDFTLTISSLQAEDVAVYYCAQFYSYPLTFGGGTKVEIK	0.557
PcOxP_DB01_H04 (human IgG1) (antibody, V domains shown) VH: EVQLLESGGGLVQPGGSLRLSCAASGFAFSDFYMEWVRQAPGKGLEWVAASRNKANDYTTEYADSVKGRFTISRDNSKNTLYLQMNSLRAEDTAVYYCARDYYGSHYWYFDVWGQGTLVTVSS VL: DIQMTQSPSSLSASVGDRVTITCTASESLYSSKHKVHYLAWYQQKPGKAPKLLIYGASNLQSGVPSRFSGSGSGTDFTLTISSLQPEDFATYYCAQFYYYPLTFGGGTKVEIK	0.456
PcOxP_DB03_D08 (human IgG1) (antibody, V domains shown) VH: EVQLLESGGGLVQPGGSLRLSCAASGFWFSDFYMEWVRQAPGKGLEWVAASRNKANDYTTEYADSVKGRFTISRDNSKNTLYLQMNSLRAEDTAVYYCARDYYGSAYWYFDVWGQGTLVTVSS VL: DIQMTQSPSSLSASVGDRVTITCTASESLYSSKHKVHYLAWYQQKPGKAPKLLIYGASNRYIGVPSRFSGSGSGTDFTLTISSLQPEDFATYYCAQFYSYPLTFGGGTKVEIK	0.401
PcOxP_DB02_C01 (human IgG1) (antibody, V domains shown) VH: EVQLLESGGGLVQPGGSLRLSCAASGFTFSDAYMEWVRQAPGKGLEWVAASRNKANDYTTEYADSVKGRFTISRDNSKNTLYLQMNSLRAEDTAVYYCARDYYGSSYWYFDVWGQGTLVTVSS VL: DIQMTQSPSSLSASVGDRVTITCTASESLYSSKHKVHYLAWYQQKPGKAPKLLIYGASNRYIGVPSRFSGSGSGTDFTLTISSLQPEDFATYYCAQFYSYPLTFGGGTKVEIK	0.64
PcOxP_DB01_E05 (human IgG1) (antibody, V domains shown) VH: EVQLLESGGGLVQPGGSLRLSCAASGFTFSDYYMEWVRQAPGKGLEWVAASRNKANDYTTEYADSVKGRFTISRDNSKNTLYLQMNSLRAEDTAVYYCARDYYGSSYWYFDVWGQGTLVTVSS VL: DIQMTQSPSSLSASVGDRVTITCTASESLYSSKHKVNYLAWYQQKPGKAPKLLIYGASNRYIGVPSRFSGSGSGTDFTLTISSLQPEDFATYYCAQFYQYPLTFGGGTKVEIK	0.417
PcOxP_DB01_D01 (human IgG1) (antibody, V domains shown) VH: EVQLLESGGGLVQPGGSLRLSCAASGFTFSSYYMEWVRQAPGKGLEWVAASRNKANDYTTEYADSVKGRFTISRDNSKNTLYLQMNSLRAEDTAVYYCARDYYGSSYWYFDVWGQGTLVTVSS VL: DIVMTQSPDSLAVSLGERATINCTASESLYSPKHKVHYLAWYQQKPGQPPKLLIYGASNRYIGVPDRFSGSGSGTDFTLTISSLQAEDVAVYYCAQFYIYPLTFGGGTKVEIK	0.274
PcOxP_DB02_H07 (human IgG1) (antibody, V domains shown) VH: EVQLLESGGGLVQPGGSLRLSCAASGFTFSSYYMEWVRQAPGKGLEWVAASRNKANDYTTEYADSVKGRFTISRDNSKNTLYLQMNSLRAEDTAVYYCARDYYGSSYWYFDVWGQGTLVTVSS VL: DIVMTQSPDSLAVSLGERATINCTASESLYSSKHKVHYLAWYQQKPGQPPKLLIYGASNRYNGVPDRFSGSGSGTDFTLTISSLQAEDVAVYYCAQFYTYPLTFGGGTKVEIK	0.423
PcOxP_DB03_A09 (human IgG1) (antibody, V domains shown) VH: EVQLLESGGGLVQPGGSLRLSCAASGFTFSDYYMEWVRQAPGKGLEWVAASRNKANDYTTEYADSVKGRFTISRDNSKNTLYLQMNSLRAEDTAVYYCARDYYGSSYWYFDVWGQGTLVTVSS VL: DIQMTQSPSSLSASVGDRVTITCTASESLYSSKHKVHYLAWYQQKPGKAPKLLIYGASNRGIGVPSRFSGSGSGTDFTLTISSLQPEDFATYYCAQFYSYPLTFGGGTKVEIK	0.664
PcOxP_DB03_E01 (human IgG1) (antibody, V domains shown) VH: EVQLLESGGGLVQPGGSLRLSCAASGFTFSDYYMEWVRQAPGKGLEWVAASRNKANDYTVEYADSVKGRFTISRDNSKNTLYLQMNSLRAEDTAVYYCARDYYGSSYWYFDVWGQGTLVTVSS VL: DIQMTQSPSSLSASVGDRVTITCTASESLYSSKHKVHYLAWYQQKPGKAPKLLIYGTSNRYIGVPSRFSGSGSGTDFTLTISSLQPEDFATYYCAQFYEYPLTFGGGTKVEIK	0.857
PcOxP_DB01_G10 (human IgG1) (antibody, V domains shown) VH: EVQLLESGGGLVQPGGSLRLSCAASGFTFSDFYMEWVRQAPGKGLEWVAASRNKNNDYTTEYADSVKGRFTISRDNSKNTLYLQMNSLRAEDTAVYYCARDYYGSSYWYFDVWGQGTLVTVSS VL: DIVMTQSPDSLAVSLGERATINCKASQSLYSSKHKKHYLAWYQQKPGQPPKLLIYGASNRYPGVPDRFSGSGSGTDFTLTISSLQAEDVAVYYCAQFYRYPLTFGGGTKVEIK	0.407
PcOxP_DB04_A09 (human IgG1) (antibody, V domains shown) VH: EVQLLESGGGLVQPGGSLRLSCAASGFTFSDYYMEWVRQAPGKGLEWVAASRNKWNDYTTEYADSVKGRFTISRDNSKNTLYLQMNSLRAEDTAVYYCARDYYGSSYWYFDVWGQGTLVTVSS VL: DIQMTQSPSSLSASVGDRVTITCTAEESLYSSKHKVHYLAWYQQKPGKAPKLLIYGASNLYSGVPSRFSGSGSGTDFTLTISSLQPEDFATYYCAQFYSYPLTFGGGTKVEIK	0.269

Now from value to binder:

EC50 [nM]	Binder
0.43	PcOxP_DB01_A06 (human IgG1) (antibody, V domains shown) VH: EVQLLESGGGLVQPGGSLRLSCAASGFTFSDYYMEWVRQAPGKGLEWVAASRNKANDYTTEYADSVKGRFTISRDNSKNTLYLQMNSLRAEDTAVYYCARDYYGSSYWYFDVWGQGTLVTVSS VL: DIQMTQSPSSLSASVGDRVTITCTASESLYSSKHKVHYLAWYQQKPGKAPKLLIYGASNRYIGVPSRFSGSGSGTDFTLTISSLQPEDFATYYCAEFYSYPLTFGGGTKVEIK
0.643	PcOxP_DB02_A06 (human IgG1) (antibody, V domains shown) VH: EVQLLESGGGLVQPGGSLRLSCAASGFTFSDQYMEWVRQAPGKGLEWVAASRNKANDYTTEYADSVKGRFTISRDNSKNTLYLQMNSLRAEDTAVYYCARDYYGSSYWYFDVWGQGTLVTVSS VL: DIQMTQSPSSLSASVGDRVTITCTASESLYSSKHKVHYLAWYQQKPGKAPKLLIYGLSNRYIGVPSRFSGSGSGTDFTLTISSLQPEDFATYYCAQFYSYPLTFGGGTKVEIK
0.317	PcOxP_DB01_B09 (human IgG1) (antibody, V domains shown) VH: EVQLLESGGGLVQPGGSLRLSCAASGFTFSDYYMEWVRQAPGKGLEWVAASRNKANDYTTEYADSVKGRFTISRDNSKNTLYLQMNSLRAEDTAVYYCARDYYGSSYWYFDVWGQGTLVTVSS VL: DIQMTQSPSSLSASVGDRVTITCTASESLYSSKHKVHYLAWYQQKPGKAPKLLIYGASNRYTGVPSRFSGSGSGTDFTLTISSLQPEDFATYYCAQFYHYPLTFGGGTKVEIK
0.31	PcOxP_DB01_C04 (human IgG1) (antibody, V domains shown) VH: EVQLLESGGGLVQPGGSLRLSCAASGFQFSDFYMEWVRQAPGKGLEWVAASRNKANDYTTEYADSVKGRFTISRDNSKNTLYLQMNSLRAEDTAVYYCARDYYGSSYWYFDVWGQGTLVTVSS VL: DIQMTQSPSSLSASVGDRVTITCTASESLYSSKHKVHYLAWYQQKPGKAPKLLIYGASNRYIGVPSRFSGSGSGTDFTLTISSLQPEDFATYYCAQFYYYPLTFGGGTKVEIK
0.436	PcOxP_DB03_C12 (human IgG1) (antibody, V domains shown) VH: EVQLLESGGGLVQPGGSLRLSCAASGFTFSDYYMEWVRQAPGKGLEWVAASRNKANDYTTEYADSVKGRFTISRDNSKNTLYLQMNSLRAEDTAVYYCARDYYGSSYWYFDVWGQGTLVTVSS VL: DIQMTQSPSSLSASVGDRVTITCTASESLYSSKHKVHYLAWYQQKPGKAPKLLIYGASNRYGGVPSRFSGSGSGTDFTLTISSLQPEDFATYYCAQFYSYPLTFGGGTKVEIK
0.339	PcOxP_DB03_C03 (human IgG1) (antibody, V domains shown) VH: EVQLLESGGGLVQPGGSLRLSCAASGFTFSDFYMEWVRQAPGKGLEWVAASRNKYNDYTTEYADSVKGRFTISRDNSKNTLYLQMNSLRAEDTAVYYCARDYYGSSYWYFDVWGQGTLVTVSS VL: DIQMTQSPSSLSASVGDRVTITCTASESLYSSKHKVHYLAWYQQKPGKAPKLLIYGASNRYIGVPSRFSGSGSGTDFTLTISSLQPEDFATYYCAQFYSYPLTFGGGTKVEIK
0.242	PcOxP_DB01_D11 (human IgG1) (antibody, V domains shown) VH: EVQLLESGGGLVQPGGSLRLSCAASGFTFSSYYMEWVRQAPGKGLEWVAASRNKANDYTTEYADSVKGRFTISRDNSKNTLYLQMNSLRAEDTAVYYCARDYYGSSYWYNDVWGQGTLVTVSS VL: DIVMTQSPDSLAVSLGERATINCTASESLYSSKWKVHYLAWYQQKPGQPPKLLIYGASNRYIGVPDRFSGSGSGTDFTLTISSLQAEDVAVYYCAQFYSYPLTFGGGTKVEIK
0.636	PcOxP_DB03_G07 (human IgG1) (antibody, V domains shown) VH: EVQLLESGGGLVQPGGSLRLSCAASGFTFSDHYMEWVRQAPGKGLEWVAASRNKANDYTTEYADSVKGRFTISRDNSKNTLYLQMNSLRAEDTAVYYCARDYYGQSYWYFDVWGQGTLVTVSS VL: DIQMTQSPSSLSASVGDRVTITCTASESLYSSKHKVHYLAWYQQKPGKAPKLLIYGASNRYIGVPSRFSGSGSGTDFTLTISSLQPEDFATYYCAQFYSYPLTFGGGTKVEIK
